Results on three molecules are retold here after patent publication US20120064547A1 (PROBIODRUG, published 2012).

Test [1] has as its target T1, Aβ N3pE-40 peptide (N-terminal Glu (position 3 of Aβ) cyclized to pyroglutamate).
T1 construct: Synthetic peptide; also called AβpE3-40; amyloid β N3pE-40
The test can be described thus: SPR Biacore 3000, AβpE3-40 on CM5 chip, bivalent analyte model. (SPR reads the build-up and loss of mass on a sensor chip optically.)

Test [2] concerns the target T2, BSA-pGlu-6166 peptide (pGlu-FRHDSGC conjugated to bovine serum albumin).
T2 construct: also called N3pE-BSA
T2 peptide: [pGlu]FRHDSGC([SMPH-BSA])
The test can be described thus: IgG ELISA, hybridoma supernatant on peptide-BSA coat. A general note: ELISA stands for enzyme-linked immunosorbent assay.

The target in a further test is N3E-BSA. Described as above.
A further test concerns the target isoDAE-BSA. The test is described as above.
A further test deals with N11pE-BSA. Described as above.
The target in test [3] is T3, PepSpot peptide No. 6 pEFRHDSGYEVHHQ
T3 construct: Spotted on a PepSpot membrane; also called spot number 6; the specific Aβ N3pE-x spot
T3 peptide: [pGlu]FRHDSGYEVHHQ
Kind of test: PepSpot peptide membrane.

Test [4] has as its target T4, PepSpot peptide No. 5 EFRHDSGYEVHHQ
T4 construct: Spotted on a PepSpot membrane; also called spot number 5
T4 peptide: EFRHDSGYEVHHQ
The test can be described thus: PepSpot peptide membrane.

The target of test [5] is T5, PepSpot peptide No. 7 FRHDSGYEVHHQK
T5 construct: Spotted on a PepSpot membrane; also called spot number 7
T5 peptide: FRHDSGYEVHHQK
The test can be described thus: PepSpot peptide membrane.

The next test deals with T6, Big Gastrin (human, UniProt P01350 59-92, limits assumed, N-terminal pyroglutamate (pGlu peptide)).
T6 construct: Whole peptide or N-terminal region
T6 peptide (looked up): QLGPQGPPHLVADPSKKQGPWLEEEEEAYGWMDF
Kind of test: SPR (Biacore 3000), peptide on CM5 chip, antibody 25 µg/ml.

For another test, the target named is T7, Gonadoliberin (human, UniProt P01148 24-33, N-terminal pyroglutamate (pGlu peptide)).
T7 construct: Whole peptide or N-terminal region
T7 peptide (looked up): QHWSYGLRPG
The test is described as above.

A further test addresses T8, Orexin A (human, UniProt O43612 34-66, limits assumed, N-terminal pyroglutamate (pGlu peptide)).
T8 construct: Whole peptide or N-terminal region
T8 peptide (looked up): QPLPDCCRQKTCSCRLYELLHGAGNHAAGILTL
The description is as above.

The target in another test is MCP-1 (human, UniProt P13500 24-99, limits assumed, N-terminal pyroglutamate (pGlu peptide)). The test is described as above.
A further test concerns the target T9, Neurotensin (human, UniProt P30990 151-163, N-terminal pyroglutamate (pGlu peptide)).
T9 construct: Whole peptide or N-terminal region
Described as above.

The next test has as its target T10, MCP-2 (human, UniProt P80075 24-99, limits assumed, N-terminal pyroglutamate (pGlu peptide)).
T10 construct: Whole peptide or N-terminal region
T10 sequence (peptide, looked up): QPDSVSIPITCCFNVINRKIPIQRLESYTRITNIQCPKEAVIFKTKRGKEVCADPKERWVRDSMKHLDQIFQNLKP
The description is as above.

For test [6], the target named is T1, Aβ N3pE-40 peptide. Kind of test: SPR (Biacore, CM5 chip with coupled Aβ N3pE-40), overlay of hybridoma supernatants. The sheet carries the label Figure 6, but its content is that of the legend of FIG. 5.
For the next test, the target named is N11E-BSA. The test can be described thus: IgG ELISA, hybridoma supernatant on peptide-BSA coat.

Where no end group is shown, it is not given here. Side-chain parts run from the residue outwards. [ ]: non-standard residue; d: D form. SMPH = maleimide crosslinker coupling C-terminal Cys to BSA; pGlu = O=C1CC[C@@H](C(=O)O)N1 A value given as a limit tells only on which side of the number the result lay.

B1: Aβ 24-2-3 (monoclonal antibody of hybridoma cell line 24-2-3, DSM ACC 2926) (antibody, V domains shown)
VH: QVQLQQSGAELVRPGSSVKISCKASGYIFNNYWINWVKQRPGQGLEWIGQIYPGDGDTNYNGKFKGKATLTADKSSSTAYMQLSSLTSEDSAVYFCAREGYIVYWGQGTLVTVSA
VL: not shown
notes: Mouse hybridoma IgG; The entries as printed begin with a leader and end with the first residues of the constant region; Heavy chain amplified with primer MHCG2b, light chain with MKC; Tested as supernatant and as purified antibody; also called clone 24-2-3; N3pE antibody clone 24-2-3
As for B1, the Kd in the test with Aβ N3pE-40 peptide [1] worked out at 0.101 µM. The “signal in ELISA (OD)” value came to 1.77 OD 405 nm in test [2], 0.218 OD 405 nm with N3E-BSA, 0.014 OD 405 nm with isoDAE-BSA and 0.002 OD 405 nm in the test with N11pE-BSA. For the same molecule, the binding result in test [3], in test [4] and in test [5] was “binds” in each case. Besides, the “% cross reactivity (against AβpE3-40)” value with Big Gastrin, with Gonadoliberin, in the test with Orexin A, with MCP-1, with Neurotensin and with MCP-2 was below 1% each time.

B2: Aβ 5-5-6 (monoclonal antibody of hybridoma cell line 5-5-6, DSM ACC 2923) (antibody, V domains shown)
VH: EVQLQQSGPELVKPGASMKISCKASGYSFTGYTMNWVKQSHGKNLEWIGLINPYSGVTRYNQKFKGKATLIVDKSSSTAYMELLSLTSEDSAVYYCTREAKREWDETYWGQGTLVTVSA
VL: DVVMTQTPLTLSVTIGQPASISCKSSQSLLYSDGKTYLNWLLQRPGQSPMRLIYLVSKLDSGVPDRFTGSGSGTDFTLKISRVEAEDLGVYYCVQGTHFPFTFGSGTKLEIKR
notes: Mouse hybridoma IgG; The entries as printed begin with a leader and end with the first residues of the constant region; Heavy chain amplified with primer MHCG1, light chain with MKC; Tested as hybridoma culture supernatant; also called clone 5-5-6; antibody 5-5-6
In the case of B2, the binding result (in the test with Aβ N3pE-40 peptide [6]; in test [3]; in test [4]; in [5]) was “binds” throughout. For the same molecule, the “signal in ELISA (OD)” value in the test with N11E-BSA worked out at 0.004 OD 405 nm; in test [2], 1.65 OD 405 nm; in the test with N3E-BSA, 0.126 OD 405 nm; with isoDAE-BSA, 0.015 OD 405 nm; in the test with N11pE-BSA it was 0.006 OD 405 nm.

B3: Aβ 17-4-3 (monoclonal antibody of hybridoma cell line 17-4-3, DSM ACC 2925) (antibody, V domains shown)
VH: EVKLVESGGGLVQPGGSRKLSCAASGFTFSDYGMAWVRQAPGKGPEWVAFISNLAYSIYYADTVTGRFTISRENAKNTLYLEMSSLRSEDTAMYYCARYDYDNILDYVMDYWGQGTSVTVSS
VL: DVVMTQTPLSLPVSLGDQASISCRSSQSLVHSDGNTYLHWYLQKPGQSPKLLIYKVSNRFSGVPDRFSGSGSGTDFTLKISRVEAEDLGVYFCSQSTHVPPTFGGGTKLEIKR
notes: Mouse hybridoma IgG; The entries as printed begin with a leader and end with the first residues of the constant region; Heavy chain amplified with primer MHCG2b, light chain with MKC; Tested as hybridoma culture supernatant; also called clone 17-4-3; antibody 17-4-3
Consider B3, for which the binding result (in the test with Aβ N3pE-40 peptide [6]; in test [3]; in test [4]; in test [5]) was “binds” throughout. The “signal in ELISA (OD)” value was 0.003 OD 405 nm with N11E-BSA; 1.92 OD 405 nm in test [2]; 0.32 OD 405 nm with N3E-BSA; 0.007 OD 405 nm with isoDAE-BSA; 0.004 OD 405 nm with N11pE-BSA.
